Source: paper PMC8104870

Biological target: T1, bacteriophage phi29 DNA packaging ATPase gp16 (bacteriophage phi29), P11014
T1 chain: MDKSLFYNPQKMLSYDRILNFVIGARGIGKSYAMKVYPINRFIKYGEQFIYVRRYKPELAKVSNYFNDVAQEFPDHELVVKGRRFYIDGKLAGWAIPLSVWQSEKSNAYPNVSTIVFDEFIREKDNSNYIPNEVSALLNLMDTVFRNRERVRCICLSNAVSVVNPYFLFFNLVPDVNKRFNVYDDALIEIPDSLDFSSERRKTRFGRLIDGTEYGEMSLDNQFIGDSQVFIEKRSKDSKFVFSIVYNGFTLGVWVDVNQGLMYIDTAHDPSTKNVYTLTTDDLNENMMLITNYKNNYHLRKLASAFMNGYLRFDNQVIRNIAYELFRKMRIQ
Assay: cryo-EM structure
Details: remark: other sources report otherwise

B1: bacteriophage phi29 DNA packaging ATPase gp16, P11014 1-332 (enzyme)
chain: T1 chain
stoichiometry N: 5
